Test results published in patent US20180009871A1 (INTARCIA THERAPEUTICS, published 2018).
Where no end group is shown, it is not given here. [ ]: non-standard residue; d: D form. Formula III = not defined here; Formula II = not defined here; Aib = CC(C)(N)C(=O)O

B1: Compound B10 (peptide)
peptide: YSHGTFTSDYSKYLD[Aib]KSAQEFVKWLEDEPSSGAPPPS-OH
modifications: not fully specified (residue 24); printed as YSHGTFTSDYSKYLD(Aib)KSAQEFVK****WLEDEPSSGAPPPS-OH; also: structure of Formula II substituent not given here
B2: Compound A23 (peptide)
peptide: YSHGTFTSDYSKYLD[Aib]KRAQEFV[Aib]WLEDEPSSKAPPPS-OH
modifications: N-terminus assumed
SMILES: CC(C)C[C@H](NC(=O)[C@H](Cc1ccc(O)cc1)NC(=O)[C@H](CCCCN)NC(=O)[C@H](CO)NC(=O)[C@H](Cc1ccc(O)cc1)NC(=O)[C@H](CC(=O)O)NC(=O)[C@H](CO)NC(=O)[C@@H](NC(=O)[C@H](Cc1ccccc1)NC(=O)[C@@H](NC(=O)CNC(=O)[C@H](Cc1c[nH]cn1)NC(=O)[C@H](CO)NC(=O)[C@@H](N)Cc1ccc(O)cc1)[C@@H](C)O)[C@@H](C)O)C(=O)N[C@@H](CC(=O)O)C(=O)NC(C)(C)C(=O)N[C@@H](CCCCN)C(=O)N[C@@H](CCCNC(=N)N)C(=O)N[C@@H](C)C(=O)N[C@@H](CCC(N)=O)C(=O)N[C@@H](CCC(=O)O)C(=O)N[C@@H](Cc1ccccc1)C(=O)N[C@H](C(=O)NC(C)(C)C(=O)N[C@@H](Cc1c[nH]c2ccccc12)C(=O)N[C@@H](CC(C)C)C(=O)N[C@@H](CCC(=O)O)C(=O)N[C@@H](CC(=O)O)C(=O)N[C@@H](CCC(=O)O)C(=O)N1CCC[C@H]1C(=O)N[C@@H](CO)C(=O)N[C@@H](CO)C(=O)N[C@@H](CCCCN)C(=O)N[C@@H](C)C(=O)N1CCC[C@H]1C(=O)N1CCC[C@H]1C(=O)N1CCC[C@H]1C(=O)N[C@@H](CO)C(=O)O)C(C)C
B3: Compound A24 (peptide)
peptide: YSHGTFTSDYSKYLD[Aib]KRAQEFV[Aib]WLEDEPSSKGAPPPS-OH
modifications: N-terminus assumed
SMILES: CC(C)C[C@H](NC(=O)[C@H](Cc1ccc(O)cc1)NC(=O)[C@H](CCCCN)NC(=O)[C@H](CO)NC(=O)[C@H](Cc1ccc(O)cc1)NC(=O)[C@H](CC(=O)O)NC(=O)[C@H](CO)NC(=O)[C@@H](NC(=O)[C@H](Cc1ccccc1)NC(=O)[C@@H](NC(=O)CNC(=O)[C@H](Cc1c[nH]cn1)NC(=O)[C@H](CO)NC(=O)[C@@H](N)Cc1ccc(O)cc1)[C@@H](C)O)[C@@H](C)O)C(=O)N[C@@H](CC(=O)O)C(=O)NC(C)(C)C(=O)N[C@@H](CCCCN)C(=O)N[C@@H](CCCNC(=N)N)C(=O)N[C@@H](C)C(=O)N[C@@H](CCC(N)=O)C(=O)N[C@@H](CCC(=O)O)C(=O)N[C@@H](Cc1ccccc1)C(=O)N[C@H](C(=O)NC(C)(C)C(=O)N[C@@H](Cc1c[nH]c2ccccc12)C(=O)N[C@@H](CC(C)C)C(=O)N[C@@H](CCC(=O)O)C(=O)N[C@@H](CC(=O)O)C(=O)N[C@@H](CCC(=O)O)C(=O)N1CCC[C@H]1C(=O)N[C@@H](CO)C(=O)N[C@@H](CO)C(=O)N[C@@H](CCCCN)C(=O)NCC(=O)N[C@@H](C)C(=O)N1CCC[C@H]1C(=O)N1CCC[C@H]1C(=O)N1CCC[C@H]1C(=O)N[C@@H](CO)C(=O)O)C(C)C
B4: Compound A25 (peptide)
peptide: YSHGTFTSDYSKYLD[Aib]KRAQEFV[Aib]WLEDEPSSGAPPPSS-OH
modifications: N-terminus assumed
SMILES: CC(C)C[C@H](NC(=O)[C@H](Cc1ccc(O)cc1)NC(=O)[C@H](CCCCN)NC(=O)[C@H](CO)NC(=O)[C@H](Cc1ccc(O)cc1)NC(=O)[C@H](CC(=O)O)NC(=O)[C@H](CO)NC(=O)[C@@H](NC(=O)[C@H](Cc1ccccc1)NC(=O)[C@@H](NC(=O)CNC(=O)[C@H](Cc1c[nH]cn1)NC(=O)[C@H](CO)NC(=O)[C@@H](N)Cc1ccc(O)cc1)[C@@H](C)O)[C@@H](C)O)C(=O)N[C@@H](CC(=O)O)C(=O)NC(C)(C)C(=O)N[C@@H](CCCCN)C(=O)N[C@@H](CCCNC(=N)N)C(=O)N[C@@H](C)C(=O)N[C@@H](CCC(N)=O)C(=O)N[C@@H](CCC(=O)O)C(=O)N[C@@H](Cc1ccccc1)C(=O)N[C@H](C(=O)NC(C)(C)C(=O)N[C@@H](Cc1c[nH]c2ccccc12)C(=O)N[C@@H](CC(C)C)C(=O)N[C@@H](CCC(=O)O)C(=O)N[C@@H](CC(=O)O)C(=O)N[C@@H](CCC(=O)O)C(=O)N1CCC[C@H]1C(=O)N[C@@H](CO)C(=O)N[C@@H](CO)C(=O)NCC(=O)N[C@@H](C)C(=O)N1CCC[C@H]1C(=O)N1CCC[C@H]1C(=O)N1CCC[C@H]1C(=O)N[C@@H](CO)C(=O)N[C@@H](CO)C(=O)O)C(C)C
B5: Compound A26 (peptide)
peptide: YSHGTFTSDYSKYLD[Aib]KRAQEFV[Aib]WLEDEPSSGAPPPSE-OH
modifications: N-terminus assumed
SMILES: CC(C)C[C@H](NC(=O)[C@H](Cc1ccc(O)cc1)NC(=O)[C@H](CCCCN)NC(=O)[C@H](CO)NC(=O)[C@H](Cc1ccc(O)cc1)NC(=O)[C@H](CC(=O)O)NC(=O)[C@H](CO)NC(=O)[C@@H](NC(=O)[C@H](Cc1ccccc1)NC(=O)[C@@H](NC(=O)CNC(=O)[C@H](Cc1c[nH]cn1)NC(=O)[C@H](CO)NC(=O)[C@@H](N)Cc1ccc(O)cc1)[C@@H](C)O)[C@@H](C)O)C(=O)N[C@@H](CC(=O)O)C(=O)NC(C)(C)C(=O)N[C@@H](CCCCN)C(=O)N[C@@H](CCCNC(=N)N)C(=O)N[C@@H](C)C(=O)N[C@@H](CCC(N)=O)C(=O)N[C@@H](CCC(=O)O)C(=O)N[C@@H](Cc1ccccc1)C(=O)N[C@H](C(=O)NC(C)(C)C(=O)N[C@@H](Cc1c[nH]c2ccccc12)C(=O)N[C@@H](CC(C)C)C(=O)N[C@@H](CCC(=O)O)C(=O)N[C@@H](CC(=O)O)C(=O)N[C@@H](CCC(=O)O)C(=O)N1CCC[C@H]1C(=O)N[C@@H](CO)C(=O)N[C@@H](CO)C(=O)NCC(=O)N[C@@H](C)C(=O)N1CCC[C@H]1C(=O)N1CCC[C@H]1C(=O)N1CCC[C@H]1C(=O)N[C@@H](CO)C(=O)N[C@@H](CCC(=O)O)C(=O)O)C(C)C
B6: Compound A27 (peptide)
peptide: YSHGTFTSDYSKYLD[Aib]KRAQEFV[Aib]WLEDEGGPSSGAPPPS-OH
modifications: N-terminus assumed
SMILES: CC(C)C[C@H](NC(=O)[C@H](Cc1ccc(O)cc1)NC(=O)[C@H](CCCCN)NC(=O)[C@H](CO)NC(=O)[C@H](Cc1ccc(O)cc1)NC(=O)[C@H](CC(=O)O)NC(=O)[C@H](CO)NC(=O)[C@@H](NC(=O)[C@H](Cc1ccccc1)NC(=O)[C@@H](NC(=O)CNC(=O)[C@H](Cc1c[nH]cn1)NC(=O)[C@H](CO)NC(=O)[C@@H](N)Cc1ccc(O)cc1)[C@@H](C)O)[C@@H](C)O)C(=O)N[C@@H](CC(=O)O)C(=O)NC(C)(C)C(=O)N[C@@H](CCCCN)C(=O)N[C@@H](CCCNC(=N)N)C(=O)N[C@@H](C)C(=O)N[C@@H](CCC(N)=O)C(=O)N[C@@H](CCC(=O)O)C(=O)N[C@@H](Cc1ccccc1)C(=O)N[C@H](C(=O)NC(C)(C)C(=O)N[C@@H](Cc1c[nH]c2ccccc12)C(=O)N[C@@H](CC(C)C)C(=O)N[C@@H](CCC(=O)O)C(=O)N[C@@H](CC(=O)O)C(=O)N[C@@H](CCC(=O)O)C(=O)NCC(=O)NCC(=O)N1CCC[C@H]1C(=O)N[C@@H](CO)C(=O)N[C@@H](CO)C(=O)NCC(=O)N[C@@H](C)C(=O)N1CCC[C@H]1C(=O)N1CCC[C@H]1C(=O)N1CCC[C@H]1C(=O)N[C@@H](CO)C(=O)O)C(C)C

What was measured:
Experiment in all cases: cell-based or functional assay
[1] = target: human glucagon receptor (GCGR) (human, UniProt P47871 26-477)
[2] = target: human GLP-1 receptor (GLP-1R) (human, UniProt P43220 24-463)
Target sequence in this assay (P43220 24-463): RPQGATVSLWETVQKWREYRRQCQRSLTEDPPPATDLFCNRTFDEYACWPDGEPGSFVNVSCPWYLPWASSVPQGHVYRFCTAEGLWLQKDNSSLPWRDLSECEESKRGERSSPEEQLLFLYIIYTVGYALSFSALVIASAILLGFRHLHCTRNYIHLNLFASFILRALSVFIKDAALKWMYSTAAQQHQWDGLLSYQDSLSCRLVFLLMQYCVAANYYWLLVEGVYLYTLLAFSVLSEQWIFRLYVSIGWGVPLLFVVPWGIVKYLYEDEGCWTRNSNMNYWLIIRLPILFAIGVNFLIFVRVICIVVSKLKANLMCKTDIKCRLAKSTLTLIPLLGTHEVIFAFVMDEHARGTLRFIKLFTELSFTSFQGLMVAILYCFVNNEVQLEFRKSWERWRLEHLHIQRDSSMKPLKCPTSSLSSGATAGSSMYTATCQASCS

[3] = target: human glucagon receptor (GCGR) (human, UniProt P47871 26-477); remark: listed apart in the source
[4] = target: human GLP-1 receptor (GLP-1R) (human, UniProt P43220 24-463); remark: listed apart in the source
Target sequence in this assay (P43220 24-463): as above

Row | Binder | GluR pEC 50 [1] | GLP-1R pEC 50 [2] | hGCGR pEC50 (cAMP) [3] | hGLP1 pEC50 (cAMP) [4]
1 | YSHGTFTSDYSKYLD[Aib]KYAQEFVK(Formula II)WLEDEPSSGAPPPS-OH (reading uncertain) [Compound B2] | 11.1 pEC50 | < 6 pEC50 | – | –
2 | YSHGTFTSDYSKYLDK(Formula II)KYAQEFV[Aib]WLEDEPSSGAPPPS-OH (reading uncertain) [Compound B3] | 11.4 pEC50 | < 6 pEC50 | – | –
3 | YSHGTFTSDK(Formula II)SKYLD[Aib]KYAQEFV[Aib]WLEDEPSSGAPPPS-OH (reading uncertain) [Compound B4] | 9.1 pEC50 | < 6 pEC50 | – | –
4 | YSHGTFTSDYSKYLD[Aib]KYAQEFV[Aib]WLEDEPSSK(Formula III)APPPS-OH (reading uncertain) [Compound B5] | 9.6 pEC50 | < 6 pEC50 | – | –
5 | YSHGTFTSDYSKYLD[Aib]KYAQEFVK(Formula III)WLEDEPSSGAPPPS-OH (reading uncertain) [Compound B6] | 10.1 pEC50 | < 6 pEC50 | – | –
6 | YSHGTFTSDYSKYLDK(Formula III)KYAQEFV[Aib]WLEDEPSSGAPPPS-OH (reading uncertain) [Compound B7] | 8.6 pEC50 | < 6 pEC50 | – | –
7 | YSHGTFTSDK(Formula III)SKYLD[Aib]KYAQEFV[Aib]WLEDEPSSGAPPPS-OH (reading uncertain) [Compound B8] | 10.6 pEC50 | < 6 pEC50 | – | –
8 | YSHGTFTSDYSKYLD[Aib]KSAQEFV[Aib]WLEDEPSSK(Formula II)APPPS-OH (reading uncertain) [Compound B9] | 11.1 pEC50 | < 6 pEC50 | – | –
9 | B1 | 9.9 pEC50 | < 6 pEC50 | – | –
10 | YSHGTFTSDYSKYLDK(Formula II)KSAQEFV[Aib]WLEDEPSSGAPPPS-OH (reading uncertain) [Compound B11] | 10.3 pEC50 | 6.3 pEC50 | – | –
11 | YSHGTFTSDK(Formula II)SKYLD[Aib]KSAQEFV[Aib]WLEDEPSSGAPPPS-OH (reading uncertain) [Compound B12] | 11.5 pEC50 | 7.2 pEC50 | – | –
12 | B2 | – | – | 11.2 pEC50 | < 9 pEC50
13 | B3 | – | – | 12.2 pEC50 | < 9 pEC50
14 | B4 | – | – | 11.3 pEC50 | < 9 pEC50
15 | B5 | – | – | 11.1 pEC50 | < 9 pEC50
16 | B6 | – | – | 12.1 pEC50 | < 9 pEC50
